Results reported in publication PMC5536003.

Biological target: CXC chemokine receptor (CXCR)3, CXCR3A (UniProt P49682)
Chain of UniProt P49682 (P49682 whole entry): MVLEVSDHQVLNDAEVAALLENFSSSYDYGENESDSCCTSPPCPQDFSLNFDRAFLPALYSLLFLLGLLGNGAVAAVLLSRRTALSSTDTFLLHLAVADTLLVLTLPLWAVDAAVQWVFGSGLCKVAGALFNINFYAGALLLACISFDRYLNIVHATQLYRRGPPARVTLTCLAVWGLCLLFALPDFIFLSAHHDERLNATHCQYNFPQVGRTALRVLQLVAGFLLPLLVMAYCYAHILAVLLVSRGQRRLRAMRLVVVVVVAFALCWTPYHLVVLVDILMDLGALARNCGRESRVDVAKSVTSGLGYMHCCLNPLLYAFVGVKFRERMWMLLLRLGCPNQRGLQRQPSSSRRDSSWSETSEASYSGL

## CXC chemokine ligand (CXCL)10 (from UniProt P02778 22-98)
  increase of [Ca2+]i in Fura-2-loaded CHO/CXCR3A cells stimulated with 3 ng/mL CXCL10 (no GAG): 107 nM

B1: CXC chemokine ligand (CXCL)11 (ligand)
chain: FPMFKRGRCLCIGPGVKAVKVADIEKASIMYPSNNCDKIEVIITLKENKGQRCLNPKSKQARLIIKKVERKNF
  increase of [Ca2+]i in Fura-2-loaded CHO/CXCR3A cells stimulated with 3 ng/mL CXCL11 (no GAG): 304 nM

B2: CXC chemokine ligand (CXCL)9 (ligand)
chain: TPVVRKGRCSCISTNQGTIHLQSLKDLKQFAPSPSCEKIEIIATLKNGVQTCLNPDSADVKELIKKWEKQVSQKKKQKNGKKHQKKKVLKVRKSQRSRQKKTT
  increase of [Ca2+]i in Fura-2-loaded CHO/CXCR3A cells stimulated with 1 µg/mL CXCL9 (no GAG): 598 nM
